The labels stand for the following.
B1: POU domain, class 3, transcription factor 2, residues 262 to 338; numbered along this chain, P20265 (parent)
chain: EDTPTSDDLEQFAKQFKQRRIKLGFTQADVGLALGTLYGNVFSQTTICRFEALQLSFKNMCKLKPLLNKWLEEADSS

± gives the uncertainty stated by the source.

The variants in the data set derive from B1. As to the kind of experiment: abundance fitness (aPCA) (normalised: wild type 0, dead -1); higher = more abundant; growth selection in yeast, the domain comes from the species named. The note with it: Homo sapiens.
For EDTPTSDDLEGFAKQFKQRRIKLGFTQADVGLALGTLYGNVFSQTTICRFEALQLSFKNMCKLKPLLNKWLEEADSS [Q11G], the abundance fitness was -0.103 ± 0.027.
The result for EDTPTSDDLEQFAKQFKQRRIKLGFTQADVGLALGTLYGNVFSQTTICRFEALQLSFKNMCELKPLLNKWLEEADSS [K62E] reads 0.006 ± 0.038; that for EDTPTSDDLEQFAKQFKQRRIKLGFTQADVGLALGTLYGNVFSQTTICRFEALQLSFKNMCILKPLLNKWLEEADSS [K62I], -0.045 ± 0.077; that for EDTPISDDLEQFAKQFKQRRIKLGFTQADVGLALGTLYGNVFSQTTICRFEALQLSFKNMCKLKPLLNKWLEEADSS [T5I], -0.006 ± 0.075.
Consider EDTPTSDDLEQFAKQFKQRRIKLGFTQADVGLALDTLYGNVFSQTTICRFEALQLSFKNMCKLKPLLNKWLEEADSS [G35D], for which the abundance fitness was -0.415 ± 0.06.
The result for EDTPTSDDLEQFAKQFKQRRIKLGFTQADVGLALGNLYGNVFSQTTICRFEALQLSFKNMCKLKPLLNKWLEEADSS [T36N] reads 0.052 ± 0.066.
Regarding EDTPTSDDLEQFAKQFKQRRIKLGFTQADVGLALGPLYGNVFSQTTICRFEALQLSFKNMCKLKPLLNKWLEEADSS [T36P], the abundance fitness was -0.137 ± 0.046.
As for EDTPTSDDLCQFAKQFKQRRIKLGFTQADVGLALGTLYGNVFSQTTICRFEALQLSFKNMCKLKPLLNKWLEEADSS [E10C], the figure is -0.01 ± 0.05; as for EDTPTSDDLSQFAKQFKQRRIKLGFTQADVGLALGTLYGNVFSQTTICRFEALQLSFKNMCKLKPLLNKWLEEADSS [E10S], -0.028 ± 0.034.
The result for EDTPTSDDLKQFAKQFKQRRIKLGFTQADVGLALGTLYGNVFSQTTICRFEALQLSFKNMCKLKPLLNKWLEEADSS [E10K] reads 0.124 ± 0.037; that for EDTPTSDDLEQFAKQFKQRRIKLGFTQADVGLALGTLYGNVFSQTTICRFEALQLSFKNMCKLKPLLNKWLEEYDSS [A74Y], -0.151 ± 0.069.
Regarding EDTPTSDDLEQFAKQFKQRRIKLGFTQADVGLALGTLYGNVFSQTKICRFEALQLSFKNMCKLKPLLNKWLEEADSS [T46K], the abundance fitness is -0.416 ± 0.059.
The result for EDTPTSDDLEQFAKQFKQRRIKLGFTQADVGLALGTLYGNVFSQTQICRFEALQLSFKNMCKLKPLLNKWLEEADSS [T46Q] reads -0.058 ± 0.045; that for EDTPTSDDLEQFAKQFKQRRIKLGFTQADVGLALGTAYGNVFSQTTICRFEALQLSFKNMCKLKPLLNKWLEEADSS [L37A], -0.023 ± 0.034.
As to EDTPTSDDLEQFAKQFKQRRIKLGFTQADVGLALGTPYGNVFSQTTICRFEALQLSFKNMCKLKPLLNKWLEEADSS [L37P], the abundance fitness was -0.293 ± 0.062.
Regarding EDTPTSDDLEQFAKQFKQRRIKLGFTQADVGLALGTLYGNVFSQTTICRFEALQLSFKNMCKLKPLLNKWLEFADSS [E73F], the abundance fitness was -0.057 ± 0.14.
As for EDTPTSDDLEQFAKQFKQRRIKLGFTQADVGLALGTLYGNVFSQTTICRFEALQLSFKNMCKLKPLLNKWLEYADSS [E73Y], the figure is 0.129 ± 0.14; as for EDTPTSDDLEQFAKQFKQRRIKLKFTQADVGLALGTLYGNVFSQTTICRFEALQLSFKNMCKLKPLLNKWLEEADSS [G24K], -0.295 ± 0.043; as for EDTPTSDDLEQFAKQFKQRRIKLGFTQADVILALGTLYGNVFSQTTICRFEALQLSFKNMCKLKPLLNKWLEEADSS [G31I], -0.399 ± 0.14.
The result for EDTPTSDDLEQFAKQFKQRRIKLGFTQADVSLALGTLYGNVFSQTTICRFEALQLSFKNMCKLKPLLNKWLEEADSS [G31S] reads 0.025 ± 0.038.
EDTGTSDDLEQFAKQFKQRRIKLGFTQADVGLALGTLYGNVFSQTTICRFEALQLSFKNMCKLKPLLNKWLEEADSS [P4G]: the abundance fitness is -0.01 ± 0.035.
Turning to EDTPTSDDLEQFAKLFKQRRIKLGFTQADVGLALGTLYGNVFSQTTICRFEALQLSFKNMCKLKPLLNKWLEEADSS [Q15L], the abundance fitness was -0.067 ± 0.039.
For EDTPTSDDLEQFAKQFKQRRIKLGFTQADVGLALGTLYGNVQSQTTICRFEALQLSFKNMCKLKPLLNKWLEEADSS [F42Q], the abundance fitness amounted to 0.072 ± 0.042.
With EDTPTSDDLEQFAKQFKQRRIKLGFTQADVGLALGTLYGNVCSQTTICRFEALQLSFKNMCKLKPLLNKWLEEADSS [F42C], the abundance fitness is -0.006 ± 0.049.
For the variant EDTPTSDDLEQFAKQFKQRRIKLGFTQADVGLALGTLYGLVFSQTTICRFEALQLSFKNMCKLKPLLNKWLEEADSS [N40L], the abundance fitness is -0.173 ± 0.037.
The result for EDTPTSDDLEQFAKQFKQRRIKLGFTQADVGLALGTLYGWVFSQTTICRFEALQLSFKNMCKLKPLLNKWLEEADSS [N40W] reads -0.281 ± 0.049.
The result for EDTPTSDDLEQFAKQFKQRRIKLGFTQADVGLALGTLYGNVFSQCTICRFEALQLSFKNMCKLKPLLNKWLEEADSS [T45C] reads -0.163 ± 0.047; that for EDTPTSDDLEQFAKQFKQRRIKLGFTQADSGLALGTLYGNVFSQTTICRFEALQLSFKNMCKLKPLLNKWLEEADSS [V30S], -1 ± 0.21.
The result for EDTPTSDDLEQFAKQFKQRRIKLGFTQADQGLALGTLYGNVFSQTTICRFEALQLSFKNMCKLKPLLNKWLEEADSS [V30Q] reads -1.11 ± 0.23.
With EDTPTSDMLEQFAKQFKQRRIKLGFTQADVGLALGTLYGNVFSQTTICRFEALQLSFKNMCKLKPLLNKWLEEADSS [D8M], the abundance fitness is -0.056 ± 0.049.
The result for EDTPTSDYLEQFAKQFKQRRIKLGFTQADVGLALGTLYGNVFSQTTICRFEALQLSFKNMCKLKPLLNKWLEEADSS [D8Y] reads -0.41 ± 0.14.
For the variant EDTPTSDDLEQFAKQFKQRRIKLGFTQADVGLALGTLYGNVFSQTTICRFEALQLSFKNMCKLKQLLNKWLEEADSS [P65Q], the abundance fitness turned out to be 0.124 ± 0.14.
Turning to EDTPTSDDLEQFAKQFKQRRIKLGFTQADVGLALGTLYGNVFSQTTICRKEALQLSFKNMCKLKPLLNKWLEEADSS [F50K], the abundance fitness is -0.711 ± 0.1.
As for EDTPTSDDLEQFAKQFKQRRIKLGFTQADVGLALGTLYGNVFSQTTICRFEALQLSFCNMCKLKPLLNKWLEEADSS [K58C], the figure is -0.321 ± 0.096.
As for EDTPTSDDLEQFAKQFKQRRIKLGFTQADVGLALGTLYGNVFSQTTICRFEALQLSFKNMCKRKPLLNKWLEEADSS [L63R], the abundance fitness was -0.794 ± 0.048.
With EDTPTSDDLEQFAKQFKQRRIKLGFTQADVGLALGTLYGNVFSQTTICRFEALQLSFKNMCKFKPLLNKWLEEADSS [L63F], the abundance fitness is -0.347 ± 0.082.

For the origin of these results see the Human Domainome abundance scans (Beltran et al. 2025).
